# Measured values as given in IntAct's records for PubMed 17934474.
# Molecular target: brr2_yeast BRR2 (UniProt P32639)
# Sequence (P32639 whole entry): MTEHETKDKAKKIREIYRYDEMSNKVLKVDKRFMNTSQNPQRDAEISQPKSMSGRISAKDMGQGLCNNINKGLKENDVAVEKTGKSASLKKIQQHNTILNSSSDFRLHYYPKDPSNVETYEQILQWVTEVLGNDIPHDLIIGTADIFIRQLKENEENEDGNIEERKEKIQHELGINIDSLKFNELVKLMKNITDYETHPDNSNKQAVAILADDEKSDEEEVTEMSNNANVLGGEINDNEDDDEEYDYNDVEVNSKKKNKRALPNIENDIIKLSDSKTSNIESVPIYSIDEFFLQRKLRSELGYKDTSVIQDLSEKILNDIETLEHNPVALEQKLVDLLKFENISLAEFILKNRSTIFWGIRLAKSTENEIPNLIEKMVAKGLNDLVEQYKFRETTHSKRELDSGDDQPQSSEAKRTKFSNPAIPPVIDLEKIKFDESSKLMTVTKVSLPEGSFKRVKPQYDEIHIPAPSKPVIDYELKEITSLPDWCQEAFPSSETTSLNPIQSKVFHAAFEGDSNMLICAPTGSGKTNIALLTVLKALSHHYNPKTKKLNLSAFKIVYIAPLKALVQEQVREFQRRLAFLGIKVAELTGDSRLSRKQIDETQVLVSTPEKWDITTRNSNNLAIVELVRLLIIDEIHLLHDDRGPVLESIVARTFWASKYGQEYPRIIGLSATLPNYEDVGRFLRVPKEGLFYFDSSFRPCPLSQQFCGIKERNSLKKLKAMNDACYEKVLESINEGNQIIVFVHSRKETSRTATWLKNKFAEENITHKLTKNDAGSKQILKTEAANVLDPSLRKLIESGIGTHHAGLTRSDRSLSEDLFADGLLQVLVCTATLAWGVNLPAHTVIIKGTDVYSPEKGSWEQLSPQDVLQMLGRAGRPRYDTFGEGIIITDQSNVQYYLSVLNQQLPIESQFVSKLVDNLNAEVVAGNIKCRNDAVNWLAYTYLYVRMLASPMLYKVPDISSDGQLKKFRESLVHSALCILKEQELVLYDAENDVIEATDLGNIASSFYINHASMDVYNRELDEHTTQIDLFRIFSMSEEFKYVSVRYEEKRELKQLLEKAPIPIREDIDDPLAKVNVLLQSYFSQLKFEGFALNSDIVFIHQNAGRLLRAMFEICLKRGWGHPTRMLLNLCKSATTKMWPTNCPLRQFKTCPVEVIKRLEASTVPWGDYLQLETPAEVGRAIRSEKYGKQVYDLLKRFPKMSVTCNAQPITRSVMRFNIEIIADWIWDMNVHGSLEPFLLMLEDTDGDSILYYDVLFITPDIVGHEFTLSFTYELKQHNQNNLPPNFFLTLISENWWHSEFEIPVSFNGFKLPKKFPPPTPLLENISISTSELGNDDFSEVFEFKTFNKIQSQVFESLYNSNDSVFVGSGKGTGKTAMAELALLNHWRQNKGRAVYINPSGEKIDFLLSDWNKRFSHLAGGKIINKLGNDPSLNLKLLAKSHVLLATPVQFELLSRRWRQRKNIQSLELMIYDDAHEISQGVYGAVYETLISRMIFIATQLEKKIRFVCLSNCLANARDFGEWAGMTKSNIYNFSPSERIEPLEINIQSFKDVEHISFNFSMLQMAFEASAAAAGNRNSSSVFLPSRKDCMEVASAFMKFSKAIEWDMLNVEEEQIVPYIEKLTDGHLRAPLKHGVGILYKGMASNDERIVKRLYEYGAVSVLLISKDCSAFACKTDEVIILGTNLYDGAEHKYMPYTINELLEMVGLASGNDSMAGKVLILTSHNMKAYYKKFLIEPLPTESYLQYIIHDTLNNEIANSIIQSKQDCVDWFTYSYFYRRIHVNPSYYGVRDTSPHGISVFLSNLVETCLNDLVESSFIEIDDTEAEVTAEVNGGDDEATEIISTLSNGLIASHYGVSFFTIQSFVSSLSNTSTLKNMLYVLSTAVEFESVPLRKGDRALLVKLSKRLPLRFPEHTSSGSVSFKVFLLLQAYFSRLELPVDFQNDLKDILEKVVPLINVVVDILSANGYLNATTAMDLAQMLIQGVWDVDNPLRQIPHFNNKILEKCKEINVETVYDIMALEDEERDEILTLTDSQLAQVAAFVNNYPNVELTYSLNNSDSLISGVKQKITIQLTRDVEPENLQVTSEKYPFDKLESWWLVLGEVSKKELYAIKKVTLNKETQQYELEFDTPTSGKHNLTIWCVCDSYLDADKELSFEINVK
# Pre-mRNA-splicing factor 8 (Saccharomyces cerevisiae), P33334 F2382L, sequence (P33334 whole entry F2382L): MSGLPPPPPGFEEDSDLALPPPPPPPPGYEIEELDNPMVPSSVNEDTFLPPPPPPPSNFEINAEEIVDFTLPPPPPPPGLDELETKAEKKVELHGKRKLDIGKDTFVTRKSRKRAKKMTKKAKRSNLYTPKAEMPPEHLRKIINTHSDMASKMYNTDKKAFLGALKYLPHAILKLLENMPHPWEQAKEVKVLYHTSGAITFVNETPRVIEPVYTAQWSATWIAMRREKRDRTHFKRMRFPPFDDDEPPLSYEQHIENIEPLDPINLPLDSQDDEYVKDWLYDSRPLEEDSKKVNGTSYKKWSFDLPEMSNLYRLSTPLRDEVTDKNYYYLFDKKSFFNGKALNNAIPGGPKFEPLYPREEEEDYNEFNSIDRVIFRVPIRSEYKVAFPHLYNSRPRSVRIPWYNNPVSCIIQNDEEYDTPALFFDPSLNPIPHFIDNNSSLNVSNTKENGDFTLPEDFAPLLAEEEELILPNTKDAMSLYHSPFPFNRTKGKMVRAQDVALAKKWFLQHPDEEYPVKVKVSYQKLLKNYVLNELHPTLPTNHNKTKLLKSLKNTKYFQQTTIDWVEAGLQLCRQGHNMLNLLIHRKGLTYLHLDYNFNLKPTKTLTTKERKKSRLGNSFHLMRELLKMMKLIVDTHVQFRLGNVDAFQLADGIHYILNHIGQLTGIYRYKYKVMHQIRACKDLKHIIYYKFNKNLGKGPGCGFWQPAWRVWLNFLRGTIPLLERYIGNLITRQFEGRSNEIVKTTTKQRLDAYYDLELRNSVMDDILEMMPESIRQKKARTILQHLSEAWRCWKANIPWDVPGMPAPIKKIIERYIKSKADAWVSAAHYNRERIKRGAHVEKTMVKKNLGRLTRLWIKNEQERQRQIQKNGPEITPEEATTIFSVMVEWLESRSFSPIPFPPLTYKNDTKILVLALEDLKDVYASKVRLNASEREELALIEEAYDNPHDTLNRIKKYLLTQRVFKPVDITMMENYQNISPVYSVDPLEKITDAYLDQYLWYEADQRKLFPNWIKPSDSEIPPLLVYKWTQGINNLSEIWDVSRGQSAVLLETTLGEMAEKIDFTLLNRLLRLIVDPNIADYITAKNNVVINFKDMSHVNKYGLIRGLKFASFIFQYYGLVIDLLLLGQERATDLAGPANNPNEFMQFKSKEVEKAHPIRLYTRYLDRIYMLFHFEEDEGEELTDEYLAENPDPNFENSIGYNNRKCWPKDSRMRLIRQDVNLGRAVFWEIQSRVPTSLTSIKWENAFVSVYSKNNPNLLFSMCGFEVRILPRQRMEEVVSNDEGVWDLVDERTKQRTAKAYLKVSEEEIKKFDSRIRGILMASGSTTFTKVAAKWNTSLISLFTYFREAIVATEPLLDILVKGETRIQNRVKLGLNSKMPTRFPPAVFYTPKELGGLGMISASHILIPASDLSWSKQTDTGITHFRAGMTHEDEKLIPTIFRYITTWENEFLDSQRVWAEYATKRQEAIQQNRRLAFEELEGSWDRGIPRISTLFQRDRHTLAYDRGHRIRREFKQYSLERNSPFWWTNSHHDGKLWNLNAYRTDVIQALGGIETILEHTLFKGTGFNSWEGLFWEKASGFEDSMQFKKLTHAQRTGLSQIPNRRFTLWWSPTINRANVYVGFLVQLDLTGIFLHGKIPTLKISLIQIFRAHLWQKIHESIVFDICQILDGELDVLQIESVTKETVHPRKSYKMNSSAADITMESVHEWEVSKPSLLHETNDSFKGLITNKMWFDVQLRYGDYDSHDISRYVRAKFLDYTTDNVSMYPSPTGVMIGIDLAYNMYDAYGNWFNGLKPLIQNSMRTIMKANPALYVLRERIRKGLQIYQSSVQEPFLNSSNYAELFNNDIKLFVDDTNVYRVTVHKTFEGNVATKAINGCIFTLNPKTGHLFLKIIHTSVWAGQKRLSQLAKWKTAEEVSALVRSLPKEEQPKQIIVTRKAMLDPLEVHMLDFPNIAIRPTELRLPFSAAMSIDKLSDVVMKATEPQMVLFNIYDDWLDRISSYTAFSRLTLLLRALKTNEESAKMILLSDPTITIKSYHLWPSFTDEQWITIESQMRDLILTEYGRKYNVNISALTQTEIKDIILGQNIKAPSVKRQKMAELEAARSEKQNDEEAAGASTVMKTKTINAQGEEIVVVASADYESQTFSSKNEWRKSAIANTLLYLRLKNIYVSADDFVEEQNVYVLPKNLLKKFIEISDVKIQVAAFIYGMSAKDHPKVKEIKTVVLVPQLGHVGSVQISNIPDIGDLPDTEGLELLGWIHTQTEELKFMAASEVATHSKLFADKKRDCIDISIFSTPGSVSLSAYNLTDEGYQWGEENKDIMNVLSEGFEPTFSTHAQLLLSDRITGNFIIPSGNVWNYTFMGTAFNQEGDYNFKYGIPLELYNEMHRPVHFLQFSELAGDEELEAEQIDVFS
row,effect of a mutation on the interaction,Substance
1,disrupting interaction,"Pre-mRNA-splicing factor 8 (Saccharomyces cerevisiae), P33334 R2388G"
2,disrupting interaction,"Pre-mRNA-splicing factor 8 (Saccharomyces cerevisiae), P33334 H2387P"
3,decreasing interaction,"Pre-mRNA-splicing factor 8 (Saccharomyces cerevisiae), P33334 F2382L"
4,disrupting interaction,"Pre-mRNA-splicing factor 8 (Saccharomyces cerevisiae), P33334 R2388K"
5,disrupting interaction,"Pre-mRNA-splicing factor 8 (Saccharomyces cerevisiae), P33334 H2387R"
6,disrupting interaction,"Pre-mRNA-splicing factor 8 (Saccharomyces cerevisiae), P33334 F2392L"
7,decreasing interaction,"Pre-mRNA-splicing factor 8 (Saccharomyces cerevisiae), P33334 P2379T"
